# Results taken from paper PMC10724065, “Evolution of a plant growth-regulatory protein interaction specificity” (Nature Plants, 2023).
# B1: Arabidopsis thaliana AtSLY1 (yeast bait fusion) [Arabidopsis thaliana] / A. thaliana GAI (yeast prey fusion) [Arabidopsis thaliana] (parent complex)
# chain 1: MKRSTTDSDLAGDAHNETNKKMKSTEEEEIGFSNLDENLVYEVLKHVDAKTLAMSSCVSKIWHKTAQDERLWELICTRHWTNIGCGQNQLRSVVLALGGFRRLHSLYLWPLSKPNPRARFGKDELKLTLSLLSIRYYEKMSFTKRPLPESK
# chain 2: MKRDHHHHHHQDKKTMMMNEEDDGNGMDELLAVLGYKVRSSEMADVAQKLEQLEVMMSNVQEDDLSQLATETVHYNPAELYTWLDSMLTDLNPPSSNAEYDLKAIPGDAILNQFAIDSASSSNQGGGGDTYTTNKRLKCSNGVVETTTATAESTRHVVLVDSQENGVRLVHALLACAEAVQKENLTVAEALVKQIGFLAVSQIGAMRKVATYFAEALARRIYRLSPSQSPIDHSLSDTLQMHFYETCPYLKFAHFTANQAILEAFQGKKRVHVIDFSMSQGLQWPALMQALALRPGGPPVFRLTGIGPPAPDNFDYLHEVGCKLAHLAEAIHVEFEYRGFVANTLADLDASMLELRPSEIESVAVNSVFELHKLLGRPGAIDKVLGVVNQIKPEIFTVVEQESNHNSPIFLDRFTESLHYYSTLFDSLEGVPSGQDKVMSEVYLGKQICNVVACDGPDRVERHETLSQWRNRFGSAGFAAAHIGSNAFKQASMLLALFNGGEGYRVEESDGCLMLGWHTRPLIATSAWKLSTN
# Variants of: B1
# Assay: yeast 2-hybrid; parent: 0.35; read off a plot
row,Variant,response
1,chain 1 P114A,~89 β-galactosidase units
2,chain 1 P114H,~77 β-galactosidase units
3,chain 1 P114R,~94 β-galactosidase units
4,chain 1 P114T,~34 β-galactosidase units

# Variants of: B1
# Assay: yeast 2-hybrid; parent: 0.38; read off a plot
row,Variant,response
1,chain 1 K126R,~0.26 β-galactosidase units

# Variants of: B1
# Assay: yeast 2-hybrid; parent: 0.35; read off a plot
# Remark: another data set of the same source
row,Variant,response
1,"chain 1 H104Y, chain 1 E138K",~160 β-galactosidase units
2,"chain 1 P114L, chain 1 E138K",~77 β-galactosidase units
3,"chain 1 T128A, chain 1 E138K",~110 β-galactosidase units
